{
  "source": "patent US9102758B2",
  "about": "“Insulin-oligomer conjugates, formulations and uses thereof” (priority 2004, dated 2015)",
  "key": {"[1]": {"format": "physicochemical", "description": "Two hundred microliters of 0.1M Phosphate Buffer Saline (PBS, filtered, pH=7.4) was added to a 1 mL conical reaction vial. To this vial, a small amount of sample was added slowly until saturation is observed. Periodically, the solution was vortexed. […] After centrifugation, 10 μL of the sample was removed from the supernatant and diluted in 490 μL buffer (0.1 M PBS). This diluted sample was analyzed via HPLC to determine its' concentration."}, "chymotrypsin enzyme [2]": {"system": "chymotrypsin enzyme", "assay": "In vitro enzyme resistance (chymotrypsin) of HIM2 and its complexes", "settings": "chymotrypsin digest, 37° C., pH about 7.4", "procedure": "Lyophilized chymotrypsin enzyme was resuspended in 1 mM HCl to a concentration of 7.53 U/mL. A 1.53 mL aliquot of each sample was added to sample tubes and 0.850 mL into control tubes. Samples were tested in duplicate along with four control tubes per sample. […] Then 17 μL of chymotrypsin enzyme was added to each sample tube. Five μL of 1 mM HCl was added to each control tube. Immediately following the additions, 200 μL was removed from the sample and the control tubes and placed into 50 μL of 1% TFA previously aliquoted out into centrifuge tubes. This sample serves as T=0.\n(§1) The control procedure was repeated at the following intervals: 0, 8, 15, 30 minutes. For T-type and R-type samples, the procedure was repeated at the following intervals: 0, 5, 8, 12, 30, 40 and 60 minutes. The control procedure for the Zn complexes was repeated at the following intervals: 0, 12, 40 and 60 minutes. Samples were stored at −20° C. until analysis can occur via HPLC. HPLC was performed to determine percent degradation relative to the respective T=0 minute for each digest. The natural log of the percent remaining was plotted versus time and a linear regression run for each digest. The half life was calculated using the equation: t=−0.693/slope."}, "male CF-1 mice": {"system": "male CF-1 mice", "assay": "Extended Mouse Blood Glucose Assay (MBGA)", "format": "in vivo", "settings": "subcutaneous", "description": "Six paired-dose groups of 5 male CF-1 mice (Charles River Laboratories; 25-30 g) received subcutaneous injections of either the insulin compound conjugate (test article) or recombinant human insulin. The test article was reconstituted with phosphate buffer (0.01 M, a pH of about 7.4) containing 0.1% w/w bovine serum albumin and dosed at 100, 66.6, 43.3, 30, 20, and 13.3 μg/kg. Insulin compound was reconstituted with phosphate buffer (0.01 M, a pH of about 7.4) containing 0.1% w/w bovine serum albumin and dosed at 50, 33.3, 21.7, 15, 10, and 6.7 μg/kg. […] Blood samples were collected in heparin tubes for glucose assay. If glucose assay was delayed, the tubes were stored in ice water and re-warmed to room temperature before assay.\nPlasma glucose was measured with a glucometer (e.g., One Touch® Basic; Lifescan), which was calibrated at the beginning of each day of use according to the manufacturer's instructions. The potency of the insulin compound conjugate was then calculated relative to the standard curve that was generated for the recombinant human insulin response. Calculations were based upon the assumption that recombinant human insulin has a potency of 27.4 IU/mg."}, "chymotrypsin enzyme [3]": {"system": "chymotrypsin enzyme", "procedure": "Lyophilized chymotrypsin enzyme was resuspended in 1 mM HCl to a concentration of ˜7.53 U/mL. A 1.53 mL aliquot of each sample was added to sample tubes and 0.850 mL into control tubes. Samples were tested in duplicate along with four control tubes per sample. […] Then 17 μL of chymotrypsin enzyme was added to each sample tube. Five μL of 1 mM HCl was added to each control tube. Immediately following the additions, 200 μL was removed from the sample and the control tubes and placed into 50 μL of 1% TFA previously aliquoted out into centrifuge tubes. This sample serves as T=0.\nas §1"}},
  "note": "Read-outs that look alike come from different tables or passages of the source.",
  "data": [
    {"substance": "Reaction 9.5.1: T-Type Zn Complex of IN105 Monoconjugate (10 g/L Concentration)", "values": [
      {"measurement": "Solubility (mg/mL) in a pH of about 7.4, 0.1M phosphate buffer", "setting": "[1]", "value": "80-85 mg/mL"}
    ]},
    {"substance": "HIM2 (R-type zinc complex): R-type zinc complex of HIM2, 1.1% w/w zinc", "values": [
      {"measurement": "T half", "setting": "chymotrypsin enzyme [2]; 0.3 mg/mL protein", "value": "19 to 21", "unit": "min"}
    ]},
    {"substance": "Reaction 9.3.3: R-type Zn Complex of HIM2 with Protamine at Acidic pH", "values": [
      {"measurement": "Solubility", "setting": "[1]; pH 7.4", "value": 36.78, "unit": "mg/mL"}
    ]},
    {"substance": "Reaction 9.5.2: T-Type Zn Complex of IN105 Monoconjugate (1 g Scale)", "values": [
      {"measurement": "Solubility (mg/mL) in a pH of about 7.4, 0.1M phosphate buffer", "setting": "[1]", "value": "10-20 mg/mL"}
    ]},
    {"substance": "HIM2 (R-type zinc/protamine complex): R-type zinc complex of HIM2 with protamine", "values": [
      {"measurement": "glucose lowering effect at 30 and 90 minutes post dose", "setting": "male CF-1 mice", "value": "greater glucose reduction at 30 minutes than 90 minutes"},
      {"measurement": "T half", "setting": "chymotrypsin enzyme [2]; 0.6 mg/ml protein", "value": "95 to 120", "unit": "min"}
    ]},
    {"substance": "Reaction 9.6.2: R-Type Zn Complex of IN105 Conjugate at 5 g Scale", "values": [
      {"measurement": "Solubility", "setting": "[1]", "value": "10 to 25", "unit": "mg/mL"}
    ]},
    {"substance": "HIM2 (T-type zinc complex): T-type zinc complex of HIM2, 0.55% w/w zinc", "values": [
      {"measurement": "T half", "setting": "chymotrypsin enzyme [2]; 0.3 mg/mL protein", "value": "12 to 15", "unit": "min"}
    ]},
    {"substance": "IN105 (T-type zinc complex): T-type Zn complex of IN105, 1.88% w/w zinc; same zinc content as reaction 9.5.3", "values": [
      {"measurement": "T half", "setting": "chymotrypsin enzyme [3]", "value": 54.8, "unit": "min"}
    ]},
    {"substance": "HIM2: human insulin monoconjugate with a modifying moiety coupled at B29", "values": [
      {"measurement": "biopotency (MBGA) on complexation with Zn++", "setting": "male CF-1 mice; plasma glucose 30 minutes post dose, relative to recombinant human insulin", "value": "not significantly reduced"}
    ]}
  ]
}
